For data set [1], the target named is AsiA M1A mutant (bacteriophage T4) (UniProt P32267). Description: AUC.
For data set [2] the target is unchanged. Description: dynamic light scattering.
Data set [3] deals with the molecule itself. Description: AUC.
Data set [4] deals with the molecule itself. Briefly: dynamic light scattering.
Data set [5] deals with σ^70 subunit of Escherichia coli RNA polymerase (E. coli, UniProt P00579 1-613). Briefly: native gel or EMSA.
Data set [6] deals with the molecule itself. Briefly: AUC. This is another data set of the same source.

Residue numbers refer to the chain shown, from its start. Numbers in names are those of the source. Like-named read-outs stand apart in the source and are kept apart here.

In the case of “AsiA M1A mutant (from UniProt P32267 1-90) (natural protein)”, in data set [1], the Ka is 3.8e+06 M⁻¹, the Kd came to 260 nM and the stoichiometry N came out at 2. For the same molecule, the stoichiometry N in data set [2] worked out at 2.

B1: AsiA protein (wild type) (natural protein, bacteriophage T4, UniProt P32267 1-90, looked up)
chain: MNKNIDTVREIITVASILIKFSREDIVENRANFIAFLNEIGVTHEGRKLNQNSFRKIVSELTQEDKKTLIDEFNEGFEGVYRYLEMYTNK
For B1, in data set [3], the Ka worked out at 2.8e+06 M⁻¹ and the Kd was determined as 350 nM. In data set [4], the “stoichiometry N” value stood at 2.

B2: AsiA V14A mutant (natural protein, bacteriophage T4, UniProt P32267 1-90, looked up)
chain: B1 chain with V14A
In data set [3], B2 returned a Ka of 820000 M⁻¹ and a Kd of 1200 nM. For the same molecule, the “stoichiometry N” value in data set [4] was 2.

B3: AsiA I40A mutant (natural protein, bacteriophage T4, UniProt P32267 1-90, looked up)
chain: B1 chain with I40A
In data set [3], B3 came in with a Ka of 360000 M⁻¹ and a Kd of 2700 nM. Further, the “stoichiometry N” value in data set [4] was determined as 2.

B4: AsiA K20A mutant (natural protein, bacteriophage T4, UniProt P32267 1-90, looked up)
chain: B1 chain with K20A
In data set [3], B4 yielded a Ka of 2.1e+06 M⁻¹ and a Kd of 480 nM. Further, the “stoichiometry N” value in data set [4] amounted to 2.

B5: AsiA F21A mutant (natural protein, bacteriophage T4, UniProt P32267 1-90, looked up)
chain: B1 chain with F21A
Regarding B5, in data set [3], the Ka is 4.7e+06 M⁻¹ and the affinity, expressed as Kd, was 210 nM. For the same molecule, the “stoichiometry N” value in data set [4] was determined as 2.

B6: AsiA E39A mutant (natural protein, bacteriophage T4, UniProt P32267 1-90, looked up)
chain: B1 chain with E39A
In data set [3], B6 yielded a Ka of 5.7e+06 M⁻¹ and a Kd of 180 nM. The “stoichiometry N” value in data set [4] was found to be 2.

B7: AsiA L18A mutant (natural protein, bacteriophage T4, UniProt P32267 1-90, looked up)
chain: B1 chain with L18A
Regarding B7, the binding result in data set [5] is “binds”.

B8: AsiA I17A mutant (natural protein, bacteriophage T4, UniProt P32267 1-90, looked up)
chain: B1 chain with I17A
In data set [3], B8 registered a Ka of 200000 M⁻¹ and a Kd of 4900 nM. Besides, in data set [4], the “stoichiometry N” value was 2.

B9: AsiA I17A/I40A double mutant (natural protein, bacteriophage T4, UniProt P32267 1-90, looked up)
chain: B1 chain with I17A, I40A
Take B9: in data set [6], the Ka came to 1400 M⁻¹ and the Kd worked out at 694 µM.
